# Assay results published in article PMC8070244, “The MarR-Type Regulator PA3458 Is Involved in Osmoadaptation Control in Pseudomonas aeruginosa” (International Journal of Molecular Sciences, 2021).
# B1: PA3458-His6 (natural protein, Pseudomonas aeruginosa PAO1161, UniProt Q9HYE8 1-157, looked up)
# chain: MVESNKTAADTYSLAIFRAIRRLQQAAEIHSKRLSRYGGLTPLQLLILHVLAVEGELTATQLAKLVSLSQASLSGVLDRLEGRGLLYRRRDEQDRRKSWLHLDPAGHEALAEAPPLLPEYVIERFAALPEWERHGLLAALLRAADLFGLPEEDVEEE
# notes: PA3458, MarR-type transcriptional regulator of Pseudomonas aeruginosa PAO1161 (locus D3C65_07830; PAO1 ortholog PA3458), 157 residues (17.6 kDa); the gene was amplified with primers 13#/14# (forward primer begins at the ATG; 483 bp fragment) and cloned NcoI/HindIII in pET28a; it says that the gene (157 codons) was cloned as a PA3458-his6 fusion, with the forward primer starting at the ATG; Linker …
# Biological target: the molecule itself
# Assay: SEC-MALS; 100 uL of 1 mg/ml sample on Superdex 200 Increase 10/300 in LEW buffer (50 mM NaH2PO4, 300 mM NaCl pH 8), room temperature, 0.5 mL/min
protein,measurement,value
B1,stoichiometry N,4
